In PMC7538681:

Assays:
[1] = target: Sinorhizobium meliloti glutaredoxin 2 (SmGrx2), untagged (Sinorhizobium meliloti (strain Sm2011)); assay: ITC; SmGrx2 (50 µM, in the cell) titrated with SmYrbA (800 µM), 30 mM phosphate buffer pH 8.0, 20°C, one-set-of-sites model, duplicate
[2] = target: N-terminal His-tagged SmYrbA (Sinorhizobium meliloti (strain Sm2011)); assay: switchSENSE; His-tagged SmYrbA held on Ni-NTA3-tagged 48mer DNA nanolevers on the chip; SmGrx2 injected at 25, 50 and 100 µM; 10 mM potassium phosphate pH 7.4, 2 mM MgCl2; 25°C; switching dynamic mode; single-exponential fits; Kd = koff/kon
N-terminal His-tagged SmYrbA (Sinorhizobium meliloti (strain Sm2011)), sequence (main, as listed by the source): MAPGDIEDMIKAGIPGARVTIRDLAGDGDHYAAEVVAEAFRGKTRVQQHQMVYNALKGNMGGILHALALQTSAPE

| Kd [1] [µM] | dH [1] [kcal/mol] | stoichiometry N [1] | Kd [2] [µM] | dissociation halftime [2] [s] | koff [2] [s⁻¹] | kon [2] [M⁻¹ s⁻¹] | Substance |
| --- | --- | --- | --- | --- | --- | --- | --- |
| 6.8 | -2.9 | 1.27 | – | – | – | – | Sinorhizobium meliloti YrbA (SmYrbA), untagged (natural protein) |
| – | – | – | 5.6 | 50 | 0.014 | 2410 | Sinorhizobium meliloti glutaredoxin 2 (SmGrx2), untagged (natural protein) |
